Results reported in US20150344570A1 (published 2015).

T1: FcγRIIa R (human, UniProt P12318 34-217)
T1 construct: extracellular domain; also called FcgRIIa R type; 2aR; not shown: His tag at the C terminus
T1 sequence (looked up): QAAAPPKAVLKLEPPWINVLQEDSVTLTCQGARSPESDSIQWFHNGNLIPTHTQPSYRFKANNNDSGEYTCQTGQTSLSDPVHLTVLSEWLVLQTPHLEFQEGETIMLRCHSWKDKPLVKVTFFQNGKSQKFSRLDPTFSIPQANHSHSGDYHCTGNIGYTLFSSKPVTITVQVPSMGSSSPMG

T2: FcγRIIb (human, UniProt P31994 43-217)
T2 construct: extracellular domain; also called FcgRIIb; 2b; not shown: His tag at the C terminus
T2 sequence (looked up): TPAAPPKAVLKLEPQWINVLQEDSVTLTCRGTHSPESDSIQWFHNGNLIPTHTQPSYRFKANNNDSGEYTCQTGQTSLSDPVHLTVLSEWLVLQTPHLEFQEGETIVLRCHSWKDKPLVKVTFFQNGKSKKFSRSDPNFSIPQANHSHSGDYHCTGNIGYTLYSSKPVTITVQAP


Columns and labels:
FcγRIIa R [1] = molecular target: T1, FcγRIIa R; test: SPR, relative to GpH7-A5/GpH7-B3/GpL16-k0
FcγRIIb = molecular target: T2, FcγRIIb; test: SPR, relative to GpH7-A5/GpH7-B3/GpL16-k0
FcγRIIa R [2] = molecular target: T1, FcγRIIa R; test: SPR; He/Con_2aR divided by He/Con_2b (FcγRIIa R over FcγRIIb)

Binder | He/Con_2aR (FcγRIIa R [1]) [control = 100] | He/Con_2b (FcγRIIb) [control = 100] | He_2aR/2b (FcγRIIa R [2]) [ratio]
GpH7-A5/GpH7-B3 variant S267_08L/GpL16-k0 (antibody, human IgG1, kappa, Heterodimerized anti-glypican-3 IgG1; mutation in the GpH7-B3 chain only; also called He Ab) heavy 1: not shown heavy 2: not shown light: DIVMTQSPLSLPVTPGEPASISCQASESLVHSNRNTYLHWYLQKPGQSPQLLIYKVSNRFSGVPDRFSGSGSGTDFTLKISRVEAEDVGVYYCSQNTHVPPTFGQGTKVEIERTVAAPSVFIFPPSDEQLKSGTASVVCLLNNFYPREAKVQWKVDNALQSGNSQESVTEQDSKDSTYSLSSTLTLSKADYEKHKVYACEVTHQGLSSPVTKSFNRGEC | 72.1 | 109 | 0.66
GpH7-A5/GpH7-B3 variant K326_10E/GpL16-k0 (antibody, human IgG1, kappa, Heterodimerized anti-glypican-3 IgG1; mutation in the GpH7-B3 chain only; also called He Ab) heavy 1: not shown heavy 2: not shown light: DIVMTQSPLSLPVTPGEPASISCQASESLVHSNRNTYLHWYLQKPGQSPQLLIYKVSNRFSGVPDRFSGSGSGTDFTLKISRVEAEDVGVYYCSQNTHVPPTFGQGTKVEIERTVAAPSVFIFPPSDEQLKSGTASVVCLLNNFYPREAKVQWKVDNALQSGNSQESVTEQDSKDSTYSLSSTLTLSKADYEKHKVYACEVTHQGLSSPVTKSFNRGEC | 148 | 200 | 0.74
GpH7-A5/GpH7-B3 variant D270_05P/GpL16-k0 (antibody, human IgG1, kappa, Heterodimerized anti-glypican-3 IgG1; mutation in the GpH7-B3 chain only; also called He Ab) heavy 1: not shown heavy 2: not shown light: DIVMTQSPLSLPVTPGEPASISCQASESLVHSNRNTYLHWYLQKPGQSPQLLIYKVSNRFSGVPDRFSGSGSGTDFTLKISRVEAEDVGVYYCSQNTHVPPTFGQGTKVEIERTVAAPSVFIFPPSDEQLKSGTASVVCLLNNFYPREAKVQWKVDNALQSGNSQESVTEQDSKDSTYSLSSTLTLSKADYEKHKVYACEVTHQGLSSPVTKSFNRGEC | 7.5 | 13.9 | 0.54
GpH7-A5/GpH7-B3 variant A327_12R/GpL16-k0 (antibody, human IgG1, kappa, Heterodimerized anti-glypican-3 IgG1; mutation in the GpH7-B3 chain only; also called He Ab) heavy 1: not shown heavy 2: not shown light: DIVMTQSPLSLPVTPGEPASISCQASESLVHSNRNTYLHWYLQKPGQSPQLLIYKVSNRFSGVPDRFSGSGSGTDFTLKISRVEAEDVGVYYCSQNTHVPPTFGQGTKVEIERTVAAPSVFIFPPSDEQLKSGTASVVCLLNNFYPREAKVQWKVDNALQSGNSQESVTEQDSKDSTYSLSSTLTLSKADYEKHKVYACEVTHQGLSSPVTKSFNRGEC | 6 | 9 | 0.67
GpH7-A5/GpH7-B3 variant A327_18N/GpL16-k0 (antibody, human IgG1, kappa, Heterodimerized anti-glypican-3 IgG1; mutation in the GpH7-B3 chain only; also called He Ab) heavy 1: not shown heavy 2: not shown light: DIVMTQSPLSLPVTPGEPASISCQASESLVHSNRNTYLHWYLQKPGQSPQLLIYKVSNRFSGVPDRFSGSGSGTDFTLKISRVEAEDVGVYYCSQNTHVPPTFGQGTKVEIERTVAAPSVFIFPPSDEQLKSGTASVVCLLNNFYPREAKVQWKVDNALQSGNSQESVTEQDSKDSTYSLSSTLTLSKADYEKHKVYACEVTHQGLSSPVTKSFNRGEC | 88.9 | 113 | 0.79
GpH7-A5/GpH7-B3 variant A327_09D/GpL16-k0 (antibody, human IgG1, kappa, Heterodimerized anti-glypican-3 IgG1; mutation in the GpH7-B3 chain only; also called He Ab) heavy 1: not shown heavy 2: not shown light: DIVMTQSPLSLPVTPGEPASISCQASESLVHSNRNTYLHWYLQKPGQSPQLLIYKVSNRFSGVPDRFSGSGSGTDFTLKISRVEAEDVGVYYCSQNTHVPPTFGQGTKVEIERTVAAPSVFIFPPSDEQLKSGTASVVCLLNNFYPREAKVQWKVDNALQSGNSQESVTEQDSKDSTYSLSSTLTLSKADYEKHKVYACEVTHQGLSSPVTKSFNRGEC | 124 | 172 | 0.72
GpH7-A5/GpH7-B3 variant H268_09D/GpL16-k0 (antibody, human IgG1, kappa, Heterodimerized anti-glypican-3 IgG1; mutation in the GpH7-B3 chain only; also called He Ab) heavy 1: not shown heavy 2: not shown light: DIVMTQSPLSLPVTPGEPASISCQASESLVHSNRNTYLHWYLQKPGQSPQLLIYKVSNRFSGVPDRFSGSGSGTDFTLKISRVEAEDVGVYYCSQNTHVPPTFGQGTKVEIERTVAAPSVFIFPPSDEQLKSGTASVVCLLNNFYPREAKVQWKVDNALQSGNSQESVTEQDSKDSTYSLSSTLTLSKADYEKHKVYACEVTHQGLSSPVTKSFNRGEC | 149 | 239 | 0.62
GpH7-A5/GpH7-B3 variant A327_07I/GpL16-k0 (antibody, human IgG1, kappa, Heterodimerized anti-glypican-3 IgG1; mutation in the GpH7-B3 chain only; also called He Ab) heavy 1: not shown heavy 2: not shown light: DIVMTQSPLSLPVTPGEPASISCQASESLVHSNRNTYLHWYLQKPGQSPQLLIYKVSNRFSGVPDRFSGSGSGTDFTLKISRVEAEDVGVYYCSQNTHVPPTFGQGTKVEIERTVAAPSVFIFPPSDEQLKSGTASVVCLLNNFYPREAKVQWKVDNALQSGNSQESVTEQDSKDSTYSLSSTLTLSKADYEKHKVYACEVTHQGLSSPVTKSFNRGEC | 98 | 127 | 0.77
GpH7-A5/GpH7-B3 variant H268_13S/GpL16-k0 (antibody, human IgG1, kappa, Heterodimerized anti-glypican-3 IgG1; mutation in the GpH7-B3 chain only; also called He Ab) heavy 1: not shown heavy 2: not shown light: DIVMTQSPLSLPVTPGEPASISCQASESLVHSNRNTYLHWYLQKPGQSPQLLIYKVSNRFSGVPDRFSGSGSGTDFTLKISRVEAEDVGVYYCSQNTHVPPTFGQGTKVEIERTVAAPSVFIFPPSDEQLKSGTASVVCLLNNFYPREAKVQWKVDNALQSGNSQESVTEQDSKDSTYSLSSTLTLSKADYEKHKVYACEVTHQGLSSPVTKSFNRGEC | 127 | 160 | 0.8
GpH7-A5/GpH7-B3 variant A327_10E/GpL16-k0 (antibody, human IgG1, kappa, Heterodimerized anti-glypican-3 IgG1; mutation in the GpH7-B3 chain only; also called He Ab) heavy 1: not shown heavy 2: not shown light: DIVMTQSPLSLPVTPGEPASISCQASESLVHSNRNTYLHWYLQKPGQSPQLLIYKVSNRFSGVPDRFSGSGSGTDFTLKISRVEAEDVGVYYCSQNTHVPPTFGQGTKVEIERTVAAPSVFIFPPSDEQLKSGTASVVCLLNNFYPREAKVQWKVDNALQSGNSQESVTEQDSKDSTYSLSSTLTLSKADYEKHKVYACEVTHQGLSSPVTKSFNRGEC | 110 | 140 | 0.78
GpH7-A5/GpH7-B3 variant G237_20W/GpL16-k0 (antibody, human IgG1, kappa, Heterodimerized anti-glypican-3 IgG1; mutation in the GpH7-B3 chain only; also called He Ab) heavy 1: not shown heavy 2: not shown light: DIVMTQSPLSLPVTPGEPASISCQASESLVHSNRNTYLHWYLQKPGQSPQLLIYKVSNRFSGVPDRFSGSGSGTDFTLKISRVEAEDVGVYYCSQNTHVPPTFGQGTKVEIERTVAAPSVFIFPPSDEQLKSGTASVVCLLNNFYPREAKVQWKVDNALQSGNSQESVTEQDSKDSTYSLSSTLTLSKADYEKHKVYACEVTHQGLSSPVTKSFNRGEC | 138 | 193 | 0.71
GpH7-A5/GpH7-B3 variant H268_02A/GpL16-k0 (antibody, human IgG1, kappa, Heterodimerized anti-glypican-3 IgG1; mutation in the GpH7-B3 chain only; also called He Ab) heavy 1: not shown heavy 2: not shown light: DIVMTQSPLSLPVTPGEPASISCQASESLVHSNRNTYLHWYLQKPGQSPQLLIYKVSNRFSGVPDRFSGSGSGTDFTLKISRVEAEDVGVYYCSQNTHVPPTFGQGTKVEIERTVAAPSVFIFPPSDEQLKSGTASVVCLLNNFYPREAKVQWKVDNALQSGNSQESVTEQDSKDSTYSLSSTLTLSKADYEKHKVYACEVTHQGLSSPVTKSFNRGEC | 133 | 167 | 0.8
GpH7-A5/GpH7-B3 variant G237_09D/GpL16-k0 (antibody, human IgG1, kappa, Heterodimerized anti-glypican-3 IgG1; mutation in the GpH7-B3 chain only; also called He Ab) heavy 1: not shown heavy 2: not shown light: DIVMTQSPLSLPVTPGEPASISCQASESLVHSNRNTYLHWYLQKPGQSPQLLIYKVSNRFSGVPDRFSGSGSGTDFTLKISRVEAEDVGVYYCSQNTHVPPTFGQGTKVEIERTVAAPSVFIFPPSDEQLKSGTASVVCLLNNFYPREAKVQWKVDNALQSGNSQESVTEQDSKDSTYSLSSTLTLSKADYEKHKVYACEVTHQGLSSPVTKSFNRGEC | 156 | 223 | 0.7
GpH7-A5/GpH7-B3 variant K326_09D/GpL16-k0 (antibody, human IgG1, kappa, Heterodimerized anti-glypican-3 IgG1; mutation in the GpH7-B3 chain only; also called He Ab) heavy 1: not shown heavy 2: not shown light: DIVMTQSPLSLPVTPGEPASISCQASESLVHSNRNTYLHWYLQKPGQSPQLLIYKVSNRFSGVPDRFSGSGSGTDFTLKISRVEAEDVGVYYCSQNTHVPPTFGQGTKVEIERTVAAPSVFIFPPSDEQLKSGTASVVCLLNNFYPREAKVQWKVDNALQSGNSQESVTEQDSKDSTYSLSSTLTLSKADYEKHKVYACEVTHQGLSSPVTKSFNRGEC | 148 | 193 | 0.77
GpH7-A5/GpH7-B3 variant K326_07I/GpL16-k0 (antibody, human IgG1, kappa, Heterodimerized anti-glypican-3 IgG1; mutation in the GpH7-B3 chain only; also called He Ab) heavy 1: not shown heavy 2: not shown light: DIVMTQSPLSLPVTPGEPASISCQASESLVHSNRNTYLHWYLQKPGQSPQLLIYKVSNRFSGVPDRFSGSGSGTDFTLKISRVEAEDVGVYYCSQNTHVPPTFGQGTKVEIERTVAAPSVFIFPPSDEQLKSGTASVVCLLNNFYPREAKVQWKVDNALQSGNSQESVTEQDSKDSTYSLSSTLTLSKADYEKHKVYACEVTHQGLSSPVTKSFNRGEC | 147 | 199 | 0.74
GpH7-A5/GpH7-B3 variant H268_10E/GpL16-k0 (antibody, human IgG1, kappa, Heterodimerized anti-glypican-3 IgG1; mutation in the GpH7-B3 chain only; also called He Ab) heavy 1: not shown heavy 2: not shown light: DIVMTQSPLSLPVTPGEPASISCQASESLVHSNRNTYLHWYLQKPGQSPQLLIYKVSNRFSGVPDRFSGSGSGTDFTLKISRVEAEDVGVYYCSQNTHVPPTFGQGTKVEIERTVAAPSVFIFPPSDEQLKSGTASVVCLLNNFYPREAKVQWKVDNALQSGNSQESVTEQDSKDSTYSLSSTLTLSKADYEKHKVYACEVTHQGLSSPVTKSFNRGEC | 148 | 230 | 0.64
GpH7-A5/GpH7-B3 variant G236_09D/GpL16-k0 (antibody, human IgG1, kappa, Heterodimerized anti-glypican-3 IgG1; mutation in the GpH7-B3 chain only; also called He Ab) heavy 1: not shown heavy 2: not shown light: DIVMTQSPLSLPVTPGEPASISCQASESLVHSNRNTYLHWYLQKPGQSPQLLIYKVSNRFSGVPDRFSGSGSGTDFTLKISRVEAEDVGVYYCSQNTHVPPTFGQGTKVEIERTVAAPSVFIFPPSDEQLKSGTASVVCLLNNFYPREAKVQWKVDNALQSGNSQESVTEQDSKDSTYSLSSTLTLSKADYEKHKVYACEVTHQGLSSPVTKSFNRGEC | 106 | 167 | 0.64
GpH7-A5/GpH7-B3 variant K326_08L/GpL16-k0 (antibody, human IgG1, kappa, Heterodimerized anti-glypican-3 IgG1; mutation in the GpH7-B3 chain only; also called He Ab) heavy 1: not shown heavy 2: not shown light: DIVMTQSPLSLPVTPGEPASISCQASESLVHSNRNTYLHWYLQKPGQSPQLLIYKVSNRFSGVPDRFSGSGSGTDFTLKISRVEAEDVGVYYCSQNTHVPPTFGQGTKVEIERTVAAPSVFIFPPSDEQLKSGTASVVCLLNNFYPREAKVQWKVDNALQSGNSQESVTEQDSKDSTYSLSSTLTLSKADYEKHKVYACEVTHQGLSSPVTKSFNRGEC | 137 | 177 | 0.77
